How the values were obtained:
Assay in all cases: ELISA, lectin-captured E1E2 lysate, Ab 1 ug/ml
[1] = biological target: E1E2 complex (H77) with E1 mutation A269G (HCV genotype 1a, isolate H77) (UniProt P27958)
[2] = biological target: E1E2 complex (H77) with E1 mutation D321A (HCV genotype 1a, isolate H77) (UniProt P27958)
[3] = biological target: E1E2 complex (H77) with E1 mutation G225A (HCV genotype 1a, isolate H77) (UniProt P27958)
[4] = biological target: E1E2 complex (H77) with E1 mutation G282A (HCV genotype 1a, isolate H77) (UniProt P27958)
[5] = biological target: E1E2 complex (H77) with E1 mutation G315A (HCV genotype 1a, isolate H77) (UniProt P27958)
[6] = biological target: E1E2 complex (H77) with E1 mutation M323A (HCV genotype 1a, isolate H77) (UniProt P27958)
[7] = biological target: E1E2 complex (H77) with E1 mutation M324A (HCV genotype 1a, isolate H77) (UniProt P27958)
[8] = biological target: E1E2 complex (H77) with E1 mutation N305A/N234A (HCV genotype 1a, isolate H77) (UniProt P27958)
[9] = biological target: E1E2 complex (H77) with E1 mutation P244A (HCV genotype 1a, isolate H77) (UniProt P27958)
[10] = biological target: E1E2 complex (H77) with E1 mutation P295A (HCV genotype 1a, isolate H77) (UniProt P27958)
[11] = biological target: E1E2 complex (H77) with E1 mutation Q193A (HCV genotype 1a, isolate H77) (UniProt P27958)
[12] = biological target: E1E2 complex (H77) with E1 mutation Q289A (HCV genotype 1a, isolate H77) (UniProt P27958)
[13] = biological target: E1E2 complex (H77) with E1 mutation T204A (HCV genotype 1a, isolate H77) (UniProt P27958)
[14] = biological target: E1E2 complex (H77) with E1 mutation T255A (HCV genotype 1a, isolate H77) (UniProt P27958)
[15] = biological target: E1E2 complex (H77) with E1 mutation T292A (HCV genotype 1a, isolate H77) (UniProt P27958)
[16] = biological target: E1E2 complex (H77) with E1 mutation T329A (HCV genotype 1a, isolate H77) (UniProt P27958)
[17] = biological target: E1E2 complex (H77) with E1 mutation V227A (HCV genotype 1a, isolate H77) (UniProt P27958)
[18] = biological target: E1E2 complex (H77) with E1 mutation W320A (HCV genotype 1a, isolate H77) (UniProt P27958)
[19] = biological target: E1E2 complex (H77) with E1 mutation W326A (HCV genotype 1a, isolate H77) (UniProt P27958)
[20] = biological target: E1E2 complex (H77) with E1 mutation Y192A (HCV genotype 1a, isolate H77) (UniProt P27958)
[21] = biological target: E1E2 complex (H77) with E1 mutation Y201A (HCV genotype 1a, isolate H77) (UniProt P27958)
[22] = biological target: E1E2 complex (H77) with E2 mutation A642G (HCV genotype 1a, isolate H77) (UniProt P27958)
[23] = biological target: E1E2 complex (H77) with E2 mutation G436A (HCV genotype 1a, isolate H77) (UniProt P27958)
[24] = biological target: E1E2 complex (H77) with E2 mutation H638A (HCV genotype 1a, isolate H77) (UniProt P27958)
[25] = biological target: E1E2 complex (H77) with E2 mutation L441A (HCV genotype 1a, isolate H77) (UniProt P27958)
[26] = biological target: E1E2 complex (H77) with E2 mutation N428A (HCV genotype 1a, isolate H77) (UniProt P27958)
[27] = biological target: E1E2 complex (H77) with E2 mutation N448A (HCV genotype 1a, isolate H77) (UniProt P27958)
[28] = biological target: E1E2 complex (H77) with E2 mutation R639A (HCV genotype 1a, isolate H77) (UniProt P27958)
[29] = biological target: E1E2 complex (H77) with E2 mutation T621A (HCV genotype 1a, isolate H77) (UniProt P27958)

For mouse anti-E1 MAb A4 (antibody), which Binding relative to wt (%) [1] is on record?
The Binding relative to wt (%) was 47%.

And the Binding relative to wt (%) [2]?
The Binding relative to wt (%) was 91%.

And the Binding relative to wt (%) [3]?
The Binding relative to wt (%) was 106%.

And the Binding relative to wt (%) [4]?
The Binding relative to wt (%) was 50%.

What about the Binding relative to wt (%) [5] of the same substance?
Its Binding relative to wt (%) is 91%.

And the Binding relative to wt (%) [6]?
Its Binding relative to wt (%) is 69%.

What about the Binding relative to wt (%) [7] of the same substance?
Its Binding relative to wt (%) is 80%.

And the Binding relative to wt (%) [8]?
The Binding relative to wt (%) was 109%.

And the Binding relative to wt (%) [9]?
Its Binding relative to wt (%) is 85%.

What about the Binding relative to wt (%) [10] of the same substance?
Its Binding relative to wt (%) is 132%.

And the Binding relative to wt (%) [11]?
The Binding relative to wt (%) was 81%.

And the Binding relative to wt (%) [12]?
Its Binding relative to wt (%) is 49%.

And the Binding relative to wt (%) [13]?
The Binding relative to wt (%) was 102%.

And the Binding relative to wt (%) [14]?
The Binding relative to wt (%) was 106%.

What about the Binding relative to wt (%) [15] of the same substance?
The Binding relative to wt (%) was 90%.

What about the Binding relative to wt (%) [16] of the same substance?
Its Binding relative to wt (%) is 89%.

What about the Binding relative to wt (%) [17] of the same substance?
The Binding relative to wt (%) was 150%.

And the Binding relative to wt (%) [18]?
Its Binding relative to wt (%) is 105%.

And the Binding relative to wt (%) [19]?
Its Binding relative to wt (%) is 72%.

And the Binding relative to wt (%) [20]?
The Binding relative to wt (%) was 134%.

What about the Binding relative to wt (%) [21] of the same substance?
Its Binding relative to wt (%) is 5%.

What about the Binding relative to wt (%) [22] of the same substance?
Its Binding relative to wt (%) is 137%.

And the Binding relative to wt (%) [23]?
The Binding relative to wt (%) was 96%.

And the Binding relative to wt (%) [24]?
Its Binding relative to wt (%) is 104%.

What about the Binding relative to wt (%) [25] of the same substance?
Its Binding relative to wt (%) is 111%.

And the Binding relative to wt (%) [26]?
The Binding relative to wt (%) was 127%.

And the Binding relative to wt (%) [27]?
Its Binding relative to wt (%) is 97%.

And the Binding relative to wt (%) [28]?
Its Binding relative to wt (%) is 162%.

And the Binding relative to wt (%) [29]?
The Binding relative to wt (%) was 114%.

From patent US20110311550A1
